In publication PMC11857070:

Molecular target: Lectin-like protein 1 (Llp1), residues 23-241, without the signal peptide (Ustilago maydis)
Assay: SEC-MALS; Superdex 200 Increase 10/300, HEPES buffer, pH 7.5

Lectin-like protein 1 (Llp1), residues 23-241, without the signal peptide (from UniProt A0A0D1E6R1 23-241) (domain or fragment)
stoichiometry N: 4
